Test [1] concerns the target SHEP1 cell (surface binding partners of WGA not named). Briefly: z-modulation FFT microscopy on a fixed SHEP1 cell, 10, 20 and 50 µg/ml WGA, first order kinetic model fit.
Test [2] has as its target glycoprotein on Barrett's esophagus derived CP-D (CP-18821) cells. Nature of the test: cell edge tracking (mechanical deformation) by phase contrast microscopy on fixed CP-D cells, 5 ug/ml WGA, first order kinetics fit.
Test [3] shares this target. Briefly: cell edge tracking (mechanical deformation) by phase contrast microscopy on fixed CP-D cells, 20 ug/ml WGA, first order kinetics fit.

By Kd is commonly meant the concentration at which binding is half-saturated. A word on the koff: it is the first-order rate constant of dissociation. By kon is commonly meant the second-order rate constant of association. Take “Wheat germ agglutinin (WGA) (from UniProt P10968 27-197)”: the values for the Kd in test [1], in test [2] and in test [3] were 125 nM, 14 nM and 21 nM, respectively. For the same substance, the figures for the dissociation rate constant (koff) in test [1], in test [2] and in test [3] were 0.013 s⁻¹, 0.00156 s⁻¹ and 0.0029 s⁻¹, respectively. The kon in test [1] was 14000 M⁻¹ s⁻¹; in test [2], 109000 M⁻¹ s⁻¹; in test [3], 140000 M⁻¹ s⁻¹.

The values are drawn from patent publication US20160169873A1.
